Ends that are not written are not given here.
Key:
[1] = molecular target: T1, biotinylated Aβ 25-39 peptide with C-terminal glycine (human, also: biotinylated, position not given here); assay: ELISA: biotinylated peptide on streptavidin plate, goat anti-human kappa HRP, absorbance at 450 nm
T1 peptide: GSNKGAIIGLMVGGVG

[2] = molecular target: T2, biotinylated Aβ 20-34 peptide with C-terminal glycine (human, also: biotinylated, position not given here); assay: as above
T2 peptide: FAEDVGSNKGAIIGLG

[3] = molecular target: T3, biotinylated Aβ 23-37 peptide with C-terminal glycine (human, also: biotinylated, position not given here); assay: as above
T3 peptide: DVGSNKGAIIGLMVGG

[4] = molecular target: T4, biotinylated Aβ 22-36 peptide with C-terminal glycine (human, also: biotinylated, position not given here); assay: as above
T4 peptide: EDVGSNKGAIIGLMVG

[5] = molecular target: T5, biotinylated Aβ 24-38 peptide with C-terminal glycine (human, also: biotinylated, position not given here); assay: as above
T5 peptide: VGSNKGAIIGLMVGGG

[6] = molecular target: T6, biotinylated Aβ 21-35 peptide with C-terminal glycine (human, also: biotinylated, position not given here); assay: as above
T6 peptide: AEDVGSNKGAIIGLMG

murine FcγRIIb = molecular target: T7, murine FcγRIIb (murine, UniProt P08101 40-217, limits assumed); assay: SPR, receptor on CM5 chip, antibody flowed
T7 construct: Bought; also called mFcγRIIb
T7 sequence (looked up): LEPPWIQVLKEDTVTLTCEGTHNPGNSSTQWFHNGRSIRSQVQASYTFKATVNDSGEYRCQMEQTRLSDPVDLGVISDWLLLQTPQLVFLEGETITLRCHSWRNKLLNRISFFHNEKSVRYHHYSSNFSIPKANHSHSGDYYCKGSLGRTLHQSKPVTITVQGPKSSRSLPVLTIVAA
Method: (§1) Binding affinity of the antibody Fc regions to Fcγ receptors or complement were measured using BIAcore as described above. Briefly, purified human or murine Fcγ receptors (from R&D Systems) and human C1q (from Quidel) were immobilized on BIAcore CM5 chip by amine chemistry. Serial dilutions of monoclonal antibodies (ranging from 2 nM to the maximum concentration as indicated in Tables 16 and 17) were injected. HBS-EP (0.01M HEPES, pH 7.4, 0.15 M NaCl, 3 mM EDTA, 0.005% Surfactant P20) as running and sample buffer. Binding data were analyzed using 1:1 langmuir interaction model for high affinity interactions, or steady state affinity model for low affinity interactions.

murine FcγRIII = molecular target: T8, murine FcγRIII (murine, UniProt P08508 31-215, limits assumed); assay: SPR, receptor on CM5 chip, antibody flowed
T8 construct: Bought; also called mFcγRIII
T8 sequence (looked up): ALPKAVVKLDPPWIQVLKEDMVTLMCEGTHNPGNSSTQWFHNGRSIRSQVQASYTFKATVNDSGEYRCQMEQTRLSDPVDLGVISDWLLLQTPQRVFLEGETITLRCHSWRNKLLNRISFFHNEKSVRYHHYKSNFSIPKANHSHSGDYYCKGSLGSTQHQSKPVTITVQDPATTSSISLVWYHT
Method: as §1

human FcγRIIb/c = molecular target: T9, human FcγRIIb/c (human, UniProt P31994 46-217, limits assumed); assay: SPR, receptor on CM5 chip, antibody flowed
T9 construct: Bought
T9 sequence (looked up): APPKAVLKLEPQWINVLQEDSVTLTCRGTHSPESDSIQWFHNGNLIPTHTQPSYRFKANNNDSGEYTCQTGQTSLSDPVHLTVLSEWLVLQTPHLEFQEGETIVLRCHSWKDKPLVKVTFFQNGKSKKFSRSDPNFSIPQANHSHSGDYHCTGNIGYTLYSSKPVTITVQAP
Method: as §1

murine FcγRI = molecular target: T10, murine FcγRI (murine, UniProt P26151 25-297, limits assumed); assay: SPR, receptor on CM5 chip, antibody flowed
T10 construct: Bought; also called mFcγRI
T10 sequence (looked up): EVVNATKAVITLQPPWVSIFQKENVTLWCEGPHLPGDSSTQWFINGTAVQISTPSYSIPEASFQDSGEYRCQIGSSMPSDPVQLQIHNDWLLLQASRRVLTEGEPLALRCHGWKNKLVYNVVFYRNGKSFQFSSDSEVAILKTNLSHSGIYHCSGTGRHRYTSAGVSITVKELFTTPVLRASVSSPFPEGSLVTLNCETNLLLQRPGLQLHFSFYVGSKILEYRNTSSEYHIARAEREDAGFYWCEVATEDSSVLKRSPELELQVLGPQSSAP
Method: as §1

human FcγRI = molecular target: T11, human FcγRI (human, UniProt P12314 16-288, limits assumed); assay: SPR, receptor on CM5 chip, antibody flowed
T11 construct: Bought
Method: as §1

human C1q = molecular target: T12, human C1q (human, UniProt P02745 23-245; P02746 28-253; P02747 29-245); assay: SPR, C1q on CM5 chip, antibody flowed
T12 construct: also called hC1q; human complement
Method: as §1

Aβ1-43 peptide = molecular target: T13, Aβ1-43 peptide (human); assay: SPR competition: soluble peptide against immobilized Aβ1-40, Fab at 50 nM
T13 construct: also called 1-43 (WT)
Method: (§2) To determine the epitope on Aβ polypeptide that is recognized by antibody 9TL, Surface Plasmon Resonance (SPR, Biacore 3000) binding analysis was used. Aβ₁₋₄₀ polypeptide coupled to biotin (Global Peptide Services, CO) was immobilized on a streptavidin-coated chip (SA chip). The binding of Aβ antibodies Fab fragments (at 50 nM) to the immobilized Aβ₁₋₄₀ in the absence or presence of different soluble fragments of the Aβ peptide (at 10 μM, from American Peptide Company Inc., CA). Amino acid sequences of Aβ₁₋₄₀, Aβ₁₋₄₂, and Aβ₁₋₄₃ are shown in below in Table 4. The Aβ peptides which displaced binding of antibody 9TL Fab fragment to Aβ₁₋₄₀ were Aβ₂₈₋₄₀, Aβ₁₋₄₀, Aβ₃₃₋₄₀, and Aβ₁₇₋₄₀, respectively (FIG. 2). Thus, antibody 9TL binds to a C-terminal peptide (33-40) of Aβ₁₋₄₀.

Aβ28-42 peptide = molecular target: T14, Aβ28-42 peptide (human); assay: as above
T14 peptide: KGAIIGLMVGGVVIA
Method: as §2

T11 sequence (P12314 16-288 limits assumed): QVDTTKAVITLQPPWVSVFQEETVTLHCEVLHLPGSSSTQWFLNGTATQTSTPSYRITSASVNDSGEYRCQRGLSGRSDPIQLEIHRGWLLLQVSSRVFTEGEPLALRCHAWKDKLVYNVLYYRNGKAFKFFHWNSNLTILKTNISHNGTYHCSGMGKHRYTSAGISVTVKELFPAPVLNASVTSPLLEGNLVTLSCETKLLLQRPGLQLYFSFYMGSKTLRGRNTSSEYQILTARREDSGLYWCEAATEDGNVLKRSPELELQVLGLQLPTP
T13 sequence (peptide, as listed by the source): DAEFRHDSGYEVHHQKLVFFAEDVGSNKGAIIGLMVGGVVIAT
T12 sequence (P02745 23-245 limits assumed, chain 1 of 3): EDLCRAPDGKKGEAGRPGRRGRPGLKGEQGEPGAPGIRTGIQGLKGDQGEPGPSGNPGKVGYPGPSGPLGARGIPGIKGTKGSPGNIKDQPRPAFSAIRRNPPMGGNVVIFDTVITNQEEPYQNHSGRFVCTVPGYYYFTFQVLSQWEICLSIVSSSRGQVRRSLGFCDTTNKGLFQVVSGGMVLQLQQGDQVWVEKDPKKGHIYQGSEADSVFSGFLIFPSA
T12 sequence (P02746 28-253 limits assumed, chain 2 of 3): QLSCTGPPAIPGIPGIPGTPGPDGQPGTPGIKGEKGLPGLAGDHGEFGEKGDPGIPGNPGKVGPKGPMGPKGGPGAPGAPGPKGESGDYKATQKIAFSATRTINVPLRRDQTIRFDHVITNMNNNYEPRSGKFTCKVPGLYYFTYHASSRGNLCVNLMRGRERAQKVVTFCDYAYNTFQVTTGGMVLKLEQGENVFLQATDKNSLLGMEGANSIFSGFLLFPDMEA
T12 sequence (P02747 29-245 limits assumed, chain 3 of 3): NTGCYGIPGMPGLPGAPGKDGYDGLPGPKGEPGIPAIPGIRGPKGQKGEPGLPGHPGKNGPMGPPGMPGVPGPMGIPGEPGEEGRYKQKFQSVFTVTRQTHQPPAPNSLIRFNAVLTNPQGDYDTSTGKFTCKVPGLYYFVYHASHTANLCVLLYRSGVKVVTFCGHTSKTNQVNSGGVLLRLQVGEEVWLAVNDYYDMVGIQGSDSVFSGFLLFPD

B1: antibody 6G (antibody, human IgG2, kappa, V domains shown)
VH: QVQLVQSGAEVKKPGASVKVSCKASGYTFTTYAIHWVRQAPGQGLEWMGFTSPYSGVSNYNQKFKGRVTMTRDTSTSTVYMELSSLRSEDTAVYYCARFDNYDRGYVRDYWGQGTLVTVSS
VL: DIVMTQSPDSLAVSLGERATINCRASESVDNDRISFLNWYQQKPGQPPKLLIYAATKQGTGVPDRFSGSGSGTDFTLTISSLQAEDVAVYYCQQSKEFPWSFGGGTKVEIKR
notes: Full antibody with modified human IgG2a (A330P331 to S330S331) and human kappa
- absorbance at 450 nm [1]: 1.5
- absorbance at 450 nm [2]: > 3
- absorbance at 450 nm [3]: 2.3
- absorbance at 450 nm [4]: > 3
- absorbance at 450 nm [5]: 2.1
- absorbance at 450 nm [6]: > 3

B2: antibody 9TL (antibody, human IgG2, kappa)
heavy: QVQLVQSGAEVKKPGASVKVSCKASGYYTEAYYIHWVRQAPGQGLEWMGRIDPATGNTKYAPRLQDRVTMTRDTSTSTVYMELSSLRSEDTAVYYCASLYSLPVYWGQGTTVTVSSASTKGPSVFPLAPCSRSTSESTAALGCLVKDYFPEPVTVSWNSGALTSGVHTFPAVLQSSGLYSLSSVVTVPSSNFGTQTYTCNVDHKPSNTKVDKTVERKCCVECPPCPAPPVAGPSVFLFPPKPKDTLMISRTPEVTCVVVDVSHEDPEVQFNWYVDGVEVHNAKTKPREEQFNSTFRVVSVLTVVHQDWLNGKEYKCKVSNKGLPSSIEKTISKTKGQPREPQVYTLPPSREEMTKNQVSLTCLVKGFYPSDIAVEWESNGQPENNYKTTPPMLDSDGSFFLYSKLTVDKSRWQQGNVFSCSVMHEALHNHYTQKSLSLSPGK
light: DVVMTQSPLSLPVTLGQPASISCKSSQSLLYSDAKTYLNWFQQRPGQSPRRLIYQISRLDPGVPDRFSGSGSGTDFTLKISRVEAEDVGVYYCLQGTHYPVLFGQGTRLEIKRTVAAPSVFIFPPSDEQLKSGTASVVCLLNNFYPREAKVQWKVDNALQSGNSQESVTEQDSKDSTYSLSSTLTLSKADYEKHKVYACEVTHQGLSSPVTKSFNRGEC
notes: Full antibody; human IgG2a constant region with A330P331 to S330S331, human kappa; transient expression in HEK 293 cells; also called 9TL mAb; 9TL(hIgG2Δa); copies: 2 + 2
- binding result (murine FcγRIIb): no binding (tested: 30,000 nM)
- binding result (murine FcγRIII): no binding (tested: 30,000 nM)
- Kd (human FcγRIIb/c): 61 µM
- binding result (murine FcγRI): no binding (tested: 30,000 nM)
- binding result (human FcγRI): no binding (tested: 30 µM)
- binding result (human C1q): no binding (tested: 30,000 nM)

B3: antibody 9TL Fab fragment (Fab, V domains shown)
VH: QVQLVQSGAEVKKPGASVKVSCKASGYYTEAYYIHWVRQAPGQGLEWMGRIDPATGNTKYAPRLQDRVTMTRDTSTSTVYMELSSLRSEDTAVYYCASLYSLPVYWGQGTTVTVSS
VL: DVVMTQSPLSLPVTLGQPASISCKSSQSLLYSDAKTYLNWFQQRPGQSPRRLIYQISRLDPGVPDRFSGSGSGTDFTLKISRVEAEDVGVYYCLQGTHYPVLFGQGTRLEIKR
notes: Fab expressed in E. coli
- binding result (Aβ1-43 peptide): no binding (tested: 10 µM peptide)
- binding result (Aβ28-42 peptide): no binding (tested: 10 µM peptide)

From US20060057701A1 (RINAT NEUROSCIENCE, published 2006)
